Target: cell receptor(s) in the thrips midgut (Frankliniella occidentalis)
Assay: cell-based or functional assay

For “GN-S, soluble version of the Tomato spotted wilt virus (TSWV) GN envelope/membrane glycoprotein (from UniProt P36291 35-309)”, the percent of transmitting adults (thrips given an acquisition access period on GN-S mixed with purified TSWV) was 8 fold and the proportion of thrips infected with virus (real time RT-PCR, insects pre-exposed to GN-S then fed on TSWV-infected plant material) was 3 fold.
